This note sets out measurements from the supplement of paper PMC9170038.

The data set has as its system K4 kissing-loop RNA reporter. Kind of data set: apparent KD of K4 kissing-loop reporter; higher = weaker reporter binding. The conditions noted are these: Eterna round: R107. As for the experimental part:
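RNA-MaP round R107: designed RNA switches with theophylline, tryptophan, arginine or FMN aptamers are transcribed on-chip within common flanks. They are titrated with a labelled K4 kissing-loop RNA reporter in RNA-MaP buffer (100 mM Tris pH 7.5, 80 mM KCl, 4 mM MgCl2), without ligand or with the indicated ligand. Median apparent KD per design.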

Setting [1] is: input ligand: theophylline 20 uM.
[2] abbreviates: input ligand: tryptophan 2.4 mM.
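Also: bound reporter read as fluorescence of individual clusters on recovered sequencing chips by microscopy, with normalized cluster intensities fitted with a binding model.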

Consider “AAUUUAUUAACUGAUACCAGACUUAAUAAAUUGUAAAUUACUAGUGAUGUUAGUGAAUUUGUCCCUUGGCAGCAGUAUUUAUUAA [JR_ExcTheophyB_Sub009]”, for which the “apparent KD of K4 kissing-loop reporter” value reads like this: (input ligand: FMN 200 uM) 123 nM; (input ligand: arginine 13.2 mM) 133 nM; (input ligand: none) 124 nM; under setting [1], 141 nM; under setting [2], 106 nM.

On to “UUUAUUUUCUGAGGAUAUCGUUUUACUGAAGUGAUGUUUCAGUAUUUUCAUAUUAUAUAUAAUUUUCGAGAAGGCAGUAUUAUUA [JR_Nu_SSFMNB_Sub027]”, for which the “apparent KD of K4 kissing-loop reporter” value (input ligand: FMN 200 uM) stood at 83.5 nM; the “apparent KD of K4 kissing-loop reporter” value (input ligand: arginine 13.2 mM) was 60.4 nM; the “apparent KD of K4 kissing-loop reporter” value (input ligand: none) was found to be 63.7 nM; the “apparent KD of K4 kissing-loop reporter” value under setting [1] amounted to 72.2 nM; the “apparent KD of K4 kissing-loop reporter” value under setting [2] stood at 64.3 nM.

Turning to “GGAUAGGACAGAGGAUAUCCUUGAGGCAAGAAACUUGUCUCUAAAGGAUGAAUCCUAGUGAUGUUAGGAGAAGGCUGUCCUAUCG [FmnBX 14 - #SwitchBubble #StaticStem #Palindromic]”, the “apparent KD of K4 kissing-loop reporter” value is, setting by setting: (input ligand: FMN 200 uM) 103 nM; (input ligand: arginine 13.2 mM) 82.2 nM; (input ligand: none) 85 nM; under setting [1], 77.2 nM; under setting [2], 87.1 nM.

“UUAUAUAUAUUAGAUACCAGUUUAAUGGAAACAAAUUAUGUUAUGAGUGAUGUUCAUGUAAGCCCUUGGCAGCUGGUAUGGGUUU [KL-XTheo-B18]”: the “apparent KD of K4 kissing-loop reporter” value by setting is: (input ligand: FMN 200 uM) 235 nM; (input ligand: arginine 13.2 mM) 305 nM; (input ligand: none) 237 nM; under setting [1], 322 nM; under setting [2], 207 nM.

With “UAGUCCUAGUGAUGGUUAUCACGUGGUGGGCGAGGACCGGUACGGCCGCCACUCGACUAUGCAGUGAUGUUGCAAUCCGGACAAU [Exclusion - Tryptophan A (Freestyle 16)]”, the “apparent KD of K4 kissing-loop reporter” value is, setting by setting: (input ligand: FMN 200 uM) 319 nM; (input ligand: arginine 13.2 mM) 411 nM; (input ligand: none) 423 nM; under setting [1], 353 nM; under setting [2], 116 nM.

On to “CACCAUGAAUUCUCUAGGAGUGAUGUUUUUCGAGGACCGGUACGGCCGCCACUCGGACGAGGACCGUGGGAGCGGCGAAGCGGCU [?oegmullin]”, for which the “apparent KD of K4 kissing-loop reporter” value was 99.2 nM (input ligand: FMN 200 uM); 59.1 nM (input ligand: arginine 13.2 mM); 767 nM (input ligand: none); 169 nM under setting [1]; 104 nM under setting [2].

Turning to “AUUAAUAUCACGGCCGCCACUGAAUAUUGUUUUUAUAUUUAGAAUAAUUGCCAGUGAUGUUGGAUCAGGACCGGGUGAGUUUAUA [JR_SSTryptoB_Sub007]”, the “apparent KD of K4 kissing-loop reporter” value stood at 544 nM (input ligand: FMN 200 uM); 362 nM (input ligand: arginine 13.2 mM); 461 nM (input ligand: none); 377 nM under setting [1]; 421 nM under setting [2].

With “UGUGUACCGGGAAGGAGCGUGAAUGAUAAUGGAUAUAGUGAUGUUAUAUAUACGAACGAAUCGCAGGUAGGUCGCCCGGAUCCCU [SSArgB.X]”, the “apparent KD of K4 kissing-loop reporter” value runs as follows: (input ligand: FMN 200 uM) 808 nM; (input ligand: arginine 13.2 mM) 494 nM; (input ligand: none) 639 nM; under setting [1], 559 nM; under setting [2], 576 nM.

Regarding “AAGUCUCGUUAAUUCGAGGUUGCGAUCGAUACCAGUAGCGAGAGGUACCCUUGGCAGCGAAGUGAGUGAUGUUCAUGAAAGAAGA [KL-XTheoA13]”, the “apparent KD of K4 kissing-loop reporter” value (input ligand: FMN 200 uM) stood at 59.8 nM; the “apparent KD of K4 kissing-loop reporter” value (input ligand: arginine 13.2 mM) was 101 nM; the “apparent KD of K4 kissing-loop reporter” value (input ligand: none) stood at 107 nM; the “apparent KD of K4 kissing-loop reporter” value under setting [1] came to 113 nM; the “apparent KD of K4 kissing-loop reporter” value under setting [2] turned out to be 68.6 nM.

For the sequence “AGUGAUGUUUCUUUUAAGAGUGAUGUUUUUCGAGGACCGGUACGGCCGCCACUCGAGUGAUGAGUGCGUUGUUGUGAUGUUUAGU [#12 K4 Tryptophan A Exclusion]”, the “apparent KD of K4 kissing-loop reporter” value (input ligand: FMN 200 uM) was 461 nM; the “apparent KD of K4 kissing-loop reporter” value (input ligand: arginine 13.2 mM) is 313 nM; the “apparent KD of K4 kissing-loop reporter” value (input ligand: none) was 425 nM; the “apparent KD of K4 kissing-loop reporter” value under setting [1] was determined as 459 nM; the “apparent KD of K4 kissing-loop reporter” value under setting [2] came to 303 nM.

Regarding “CAAGUCGAAAAGUGAUGUUUUUCAUACGAUACCAGCAACCAGACAUGCCCUUGGCAGCGUCCAUUACGUUUCUGAGCCCGUACAG [theeternabot_exclusion_KL_Theo_A_40]”, the “apparent KD of K4 kissing-loop reporter” value was 360 nM (input ligand: FMN 200 uM); 336 nM (input ligand: arginine 13.2 mM); 389 nM (input ligand: none); 388 nM under setting [1]; 308 nM under setting [2].

Regarding “AGAACUGUCUGGGAUACCAGCCGAGGAGUGAUGUUCCGGCUCGACGAAACGUCGAGCUACGGCCCUUGGCAGCUCAGACAGUUCA [#22 K4 Theophylline B Same State]”, the “apparent KD of K4 kissing-loop reporter” value (input ligand: FMN 200 uM) turned out to be 1990 nM; the “apparent KD of K4 kissing-loop reporter” value (input ligand: arginine 13.2 mM) was determined as 639 nM; the “apparent KD of K4 kissing-loop reporter” value (input ligand: none) turned out to be 1170 nM; the “apparent KD of K4 kissing-loop reporter” value under setting [1] came to 735 nM; the “apparent KD of K4 kissing-loop reporter” value under setting [2] amounted to 340 nM.

For “GAGAUAGAGGCGGCCGCCACUAGUGAUGUUAGUGAUGUUAGAUAGAGAAUAGAACAGAGAUAGGAUAGGACCGGGCCAGAUAGAG [Tryptophan B Exclusion; Euphoria Solution]”, the “apparent KD of K4 kissing-loop reporter” value by setting is: (input ligand: FMN 200 uM) 69.4 nM; (input ligand: arginine 13.2 mM) 60.8 nM; (input ligand: none) 57.4 nM; under setting [1], 52.1 nM; under setting [2], 68.6 nM.

Consider “UGGAUAUCGUUUAGUCUGGUGAGCUCAGAUACCAGACUAGCGAUAGUCCCUUGGCAGCUGAUUAUGAUUGAGUGAUGUUCAAUCG [Theo A Ex t9b]”, for which the “apparent KD of K4 kissing-loop reporter” value is 168 nM (input ligand: FMN 200 uM); 142 nM (input ligand: arginine 13.2 mM); 168 nM (input ligand: none); 151 nM under setting [1]; 157 nM under setting [2].

Take “UAACUUGCAGUGAUGUUGCAAGAACUGGAUACCAGCAUGGAAACAUGCCCUUGGCAGCCAGAAGGUAUCCUACAUCACAGAUACU [Design2]”: the “apparent KD of K4 kissing-loop reporter” value is, setting by setting: (input ligand: FMN 200 uM) 220 nM; (input ligand: arginine 13.2 mM) 202 nM; (input ligand: none) 214 nM; under setting [1], 226 nM; under setting [2], 197 nM.

As for “GUAUCGCUAGGAGGAUAUUUCAUAUAACAUAUAAAUGGAUAUGCGGAGUGAUGUUCCGAUUUACGGAAAGAAGGCCUAGUGAUAC [FMN B 19]”, the “apparent KD of K4 kissing-loop reporter” value reads like this: (input ligand: FMN 200 uM) 119 nM; (input ligand: arginine 13.2 mM) 172 nM; (input ligand: none) 192 nM; under setting [1], 207 nM; under setting [2], 172 nM.

Turning to “AAAAUAACCCAGUGAUGUUGGUAUCCAGAUACCAGCGACGAAAGUCGCCCUUGGCAGCUGUGGACGUACAAAAUAAGUACGUCCU”, the “apparent KD of K4 kissing-loop reporter” value reads like this: (input ligand: FMN 200 uM) 903 nM; (input ligand: arginine 13.2 mM) 395 nM; (input ligand: none) 403 nM; under setting [1], 545 nM; under setting [2], 612 nM.

Regarding “AUGCUUAUAAUAACACUAUAUACAACUGAAGGAGCGACAAUAAAGUCAGGUAGGUCGCAGAAUAAAUGAGUGAUGUUCAUUUUUA [JR_ExcArginiA_Sub010]”, the “apparent KD of K4 kissing-loop reporter” value worked out at 113 nM (input ligand: FMN 200 uM); 138 nM (input ligand: arginine 13.2 mM); 113 nM (input ligand: none); 144 nM under setting [1]; 84.2 nM under setting [2].

For “GCAGGAUGAGGAGGAGGAUGAAUUACUGAAGGAGCGCAUAUUUUUGCAGGUAGGUCGCGGUAAAGAAGUAUAGUGAUGUUAUAUA [SSArgA.K]”, the “apparent KD of K4 kissing-loop reporter” value reads like this: (input ligand: FMN 200 uM) 333 nM; (input ligand: arginine 13.2 mM) 255 nM; (input ligand: none) 267 nM; under setting [1], 568 nM; under setting [2], 456 nM.

Take “GCGGCCCAGCCGGAUACCAGUGAGCCGCUGGGAACCGCGGGCCCAGAGUGAUGUUCGGGACACCCUUGGCAGCCGCCUGGGUCGC [#2 Same State - Theophylline B Attempt #20 (HarryS)]”: the “apparent KD of K4 kissing-loop reporter” value amounted to 486 nM (input ligand: FMN 200 uM); 293 nM (input ligand: arginine 13.2 mM); 643 nM (input ligand: none); 301 nM under setting [1]; 491 nM under setting [2].

In the case of “UAUAAUUCGGCGGCCGCCACUGACCAUAGCCUUCGAUGGCCAGUGAUGUUGGCCUCUGGCUCUAACAGGACCGGGCCGAAUUGUG [Reresoza]”, the “apparent KD of K4 kissing-loop reporter” value turned out to be 211 nM (input ligand: FMN 200 uM); 164 nM (input ligand: arginine 13.2 mM); 180 nM (input ligand: none); 138 nM under setting [1]; 120 nM under setting [2].
